Results from patent US20230158141A1 (YAFEI SHANGHAI BIOLOG MEDICINE SCIENCE AND TECHNOLOGY, published 2023).

Legend:
PD-1 = PD-1 (UniProt Q15116 25-167, limits assumed); assay: ELISA, OD mutant/OD WT; A=90-110%
CTLA-4 = CTLA-4 (UniProt P16410 36-162, limits assumed); assay: ELISA, OD mutant/OD WT; A=90-110%
CTLA-4, sequence (P16410 36-162 limits assumed): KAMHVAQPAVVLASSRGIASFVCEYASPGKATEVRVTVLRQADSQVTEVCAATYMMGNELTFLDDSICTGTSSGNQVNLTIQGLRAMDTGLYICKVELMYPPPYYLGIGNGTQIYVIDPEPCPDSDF

PD-1, sequence (Q15116 25-167 limits assumed): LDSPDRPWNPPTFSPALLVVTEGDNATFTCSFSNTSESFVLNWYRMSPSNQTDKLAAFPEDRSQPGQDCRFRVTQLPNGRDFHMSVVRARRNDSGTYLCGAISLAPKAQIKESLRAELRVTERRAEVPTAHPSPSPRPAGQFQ

Row | Binder | binding activity (OD after mutation/OD wild type) (PD-1) [%] | binding activity (OD after mutation/OD wild type) (CTLA-4) [%]
1 | anti-PD-1 antibody 1 heavy chain G50C (antibody, human IgG4 S228P, kappa, V domains shown) VH: QVQLVQSGVEVKKPGASVKVSCKASGYTFTNYYMYWVRQAPGQGLEWMGCINPSNGGTNFNEKFKNRVTLTTDSSTTTAYMELKSLQFDDTAVYYCARRDYRFDMGFDYWGQGTTVTVSS VL: EIVLTQSPATLSLSPGERATLSCRASKGVSTSGYSYLHWYQQKPGQAPRLLIYLASYLESGVPARFSGSGSGTDFTLTISSLEPEDFAVYYCQHSRDLPLTFGGGTKVEIKR | 90 to 110 | –
2 | anti-PD-1 antibody 1 heavy chain G56C (antibody, human IgG4 S228P, kappa, V domains shown) VH: QVQLVQSGVEVKKPGASVKVSCKASGYTFTNYYMYWVRQAPGQGLEWMGGINPSNCGTNFNEKFKNRVTLTTDSSTTTAYMELKSLQFDDTAVYYCARRDYRFDMGFDYWGQGTTVTVSS VL: EIVLTQSPATLSLSPGERATLSCRASKGVSTSGYSYLHWYQQKPGQAPRLLIYLASYLESGVPARFSGSGSGTDFTLTISSLEPEDFAVYYCQHSRDLPLTFGGGTKVEIKR | 90 to 110 | –
3 | anti-PD-1 antibody 1 heavy chain S54C (antibody, human IgG4 S228P, kappa, V domains shown) VH: QVQLVQSGVEVKKPGASVKVSCKASGYTFTNYYMYWVRQAPGQGLEWMGGINPCNGGTNFNEKFKNRVTLTTDSSTTTAYMELKSLQFDDTAVYYCARRDYRFDMGFDYWGQGTTVTVSS VL: EIVLTQSPATLSLSPGERATLSCRASKGVSTSGYSYLHWYQQKPGQAPRLLIYLASYLESGVPARFSGSGSGTDFTLTISSLEPEDFAVYYCQHSRDLPLTFGGGTKVEIKR | 90 to 110 | –
4 | anti-PD-1 antibody 1 heavy chain G57C (antibody, human IgG4 S228P, kappa, V domains shown) VH: QVQLVQSGVEVKKPGASVKVSCKASGYTFTNYYMYWVRQAPGQGLEWMGGINPSNGCTNFNEKFKNRVTLTTDSSTTTAYMELKSLQFDDTAVYYCARRDYRFDMGFDYWGQGTTVTVSS VL: EIVLTQSPATLSLSPGERATLSCRASKGVSTSGYSYLHWYQQKPGQAPRLLIYLASYLESGVPARFSGSGSGTDFTLTISSLEPEDFAVYYCQHSRDLPLTFGGGTKVEIKR | 90 to 110 | –
5 | anti-PD-1 antibody 1 heavy chain G106C (antibody, human IgG4 S228P, kappa, V domains shown) VH: QVQLVQSGVEVKKPGASVKVSCKASGYTFTNYYMYWVRQAPGQGLEWMGGINPSNGGTNFNEKFKNRVTLTTDSSTTTAYMELKSLQFDDTAVYYCARRDYRFDMCFDYWGQGTTVTVSS VL: EIVLTQSPATLSLSPGERATLSCRASKGVSTSGYSYLHWYQQKPGQAPRLLIYLASYLESGVPARFSGSGSGTDFTLTISSLEPEDFAVYYCQHSRDLPLTFGGGTKVEIKR | 90 to 110 | –
6 | anti-CTLA-4 antibody light chain A25C (antibody, human IgG1, kappa, V domains shown) VH: QVQLVESGGGVVQPGRSLRLSCAASGFTFSSYTMHWVRQAPGKGLEWVTFISYDGNNKYYADSVKGRFTISRDNSKNTLYLQMNSLRAEDTAIYYCARTGWLGPFDYWGQGTLVTVSS VL: not shown | – | 90 to 110
7 | anti-CTLA-4 antibody light chain S32C (antibody, human IgG1, kappa, V domains shown) VH: QVQLVESGGGVVQPGRSLRLSCAASGFTFSSYTMHWVRQAPGKGLEWVTFISYDGNNKYYADSVKGRFTISRDNSKNTLYLQMNSLRAEDTAIYYCARTGWLGPFDYWGQGTLVTVSS VL: not shown | – | 90 to 110
8 | anti-CTLA-4 antibody light chain S54C (antibody, human IgG1, kappa, V domains shown) VH: QVQLVESGGGVVQPGRSLRLSCAASGFTFSSYTMHWVRQAPGKGLEWVTFISYDGNNKYYADSVKGRFTISRDNSKNTLYLQMNSLRAEDTAIYYCARTGWLGPFDYWGQGTLVTVSS VL: not shown | – | 90 to 110
9 | anti-CTLA-4 antibody light chain S26C (antibody, human IgG1, kappa, V domains shown, also called CTLA-4-Ser26Cys) VH: QVQLVESGGGVVQPGRSLRLSCAASGFTFSSYTMHWVRQAPGKGLEWVTFISYDGNNKYYADSVKGRFTISRDNSKNTLYLQMNSLRAEDTAIYYCARTGWLGPFDYWGQGTLVTVSS VL: not shown | – | 90 to 110
10 | anti-CTLA-4 antibody light chain G93C (antibody, human IgG1, kappa, V domains shown) VH: QVQLVESGGGVVQPGRSLRLSCAASGFTFSSYTMHWVRQAPGKGLEWVTFISYDGNNKYYADSVKGRFTISRDNSKNTLYLQMNSLRAEDTAIYYCARTGWLGPFDYWGQGTLVTVSS VL: not shown | – | 90 to 110
11 | anti-CTLA-4 antibody light chain S31C (antibody, human IgG1, kappa, V domains shown) VH: QVQLVESGGGVVQPGRSLRLSCAASGFTFSSYTMHWVRQAPGKGLEWVTFISYDGNNKYYADSVKGRFTISRDNSKNTLYLQMNSLRAEDTAIYYCARTGWLGPFDYWGQGTLVTVSS VL: not shown | – | 90 to 110
12 | anti-CTLA-4 antibody light chain S28C (antibody, human IgG1, kappa, V domains shown) VH: QVQLVESGGGVVQPGRSLRLSCAASGFTFSSYTMHWVRQAPGKGLEWVTFISYDGNNKYYADSVKGRFTISRDNSKNTLYLQMNSLRAEDTAIYYCARTGWLGPFDYWGQGTLVTVSS VL: not shown | – | 90 to 110
13 | anti-CTLA-4 antibody light chain G58C (antibody, human IgG1, kappa, V domains shown) VH: QVQLVESGGGVVQPGRSLRLSCAASGFTFSSYTMHWVRQAPGKGLEWVTFISYDGNNKYYADSVKGRFTISRDNSKNTLYLQMNSLRAEDTAIYYCARTGWLGPFDYWGQGTLVTVSS VL: not shown | – | 90 to 110
14 | anti-CTLA-4 antibody light chain G30C (antibody, human IgG1, kappa, V domains shown) VH: QVQLVESGGGVVQPGRSLRLSCAASGFTFSSYTMHWVRQAPGKGLEWVTFISYDGNNKYYADSVKGRFTISRDNSKNTLYLQMNSLRAEDTAIYYCARTGWLGPFDYWGQGTLVTVSS VL: not shown | – | 90 to 110
15 | anti-CTLA-4 antibody light chain G51C (antibody, human IgG1, kappa, V domains shown) VH: QVQLVESGGGVVQPGRSLRLSCAASGFTFSSYTMHWVRQAPGKGLEWVTFISYDGNNKYYADSVKGRFTISRDNSKNTLYLQMNSLRAEDTAIYYCARTGWLGPFDYWGQGTLVTVSS VL: not shown | – | 90 to 110

More lines, now with the values ahead:

Row | binding activity (OD after mutation/OD wild type) (PD-1) [%] | binding activity (OD after mutation/OD wild type) (CTLA-4) [%] | Binder
16 | 90 to 110 | – | anti-PD-1 antibody 2 heavy chain G33C (antibody, human IgG4 S228P, kappa, V domains shown) VH: QVQLVESGGGVVQPGRSLRLDCKASGITFSNSCMHWVRQAPGKGLEWVAVIWYDGSKRYYADSVKGRFTISRDNSKNTLFLQMNSLRAEDTAVYYCATNDDYWGQGTLVTVSS VL: EIVLTQSPATLSLSPGERATLSCRASQSVSSYLAWYQQKPGQAPRLLIYDASNRATGIPARFSGSGSGTDFTLTISSLEPEDFAVYYCQQSSNWPRTFGQGTKVEIKR
17 | 90 to 110 | – | anti-PD-1 antibody 2 heavy chain S56C (antibody, human IgG4 S228P, kappa, V domains shown) VH: QVQLVESGGGVVQPGRSLRLDCKASGITFSNSGMHWVRQAPGKGLEWVAVIWYDGCKRYYADSVKGRFTISRDNSKNTLFLQMNSLRAEDTAVYYCATNDDYWGQGTLVTVSS VL: EIVLTQSPATLSLSPGERATLSCRASQSVSSYLAWYQQKPGQAPRLLIYDASNRATGIPARFSGSGSGTDFTLTISSLEPEDFAVYYCQQSSNWPRTFGQGTKVEIKR
18 | 90 to 110 | – | anti-PD-1 antibody 2 heavy chain S32C (antibody, human IgG4 S228P, kappa, V domains shown) VH: QVQLVESGGGVVQPGRSLRLDCKASGITFSNCGMHWVRQAPGKGLEWVAVIWYDGSKRYYADSVKGRFTISRDNSKNTLFLQMNSLRAEDTAVYYCATNDDYWGQGTLVTVSS VL: EIVLTQSPATLSLSPGERATLSCRASQSVSSYLAWYQQKPGQAPRLLIYDASNRATGIPARFSGSGSGTDFTLTISSLEPEDFAVYYCQQSSNWPRTFGQGTKVEIKR
19 | 90 to 110 | – | anti-PD-1 antibody 2 heavy chain S30C (antibody, human IgG4 S228P, kappa, V domains shown) VH: QVQLVESGGGVVQPGRSLRLDCKASGITFCNSGMHWVRQAPGKGLEWVAVIWYDGSKRYYADSVKGRFTISRDNSKNTLFLQMNSLRAEDTAVYYCATNDDYWGQGTLVTVSS VL: EIVLTQSPATLSLSPGERATLSCRASQSVSSYLAWYQQKPGQAPRLLIYDASNRATGIPARFSGSGSGTDFTLTISSLEPEDFAVYYCQQSSNWPRTFGQGTKVEIKR
20 | 90 to 110 | – | anti-PD-1 antibody 2 heavy chain G66C (antibody, human IgG4 S228P, kappa, V domains shown) VH: QVQLVESGGGVVQPGRSLRLDCKASGITFSNSGMHWVRQAPGKGLEWVAVIWYDGSKRYYADSVKCRFTISRDNSKNTLFLQMNSLRAEDTAVYYCATNDDYWGQGTLVTVSS VL: EIVLTQSPATLSLSPGERATLSCRASQSVSSYLAWYQQKPGQAPRLLIYDASNRATGIPARFSGSGSGTDFTLTISSLEPEDFAVYYCQQSSNWPRTFGQGTKVEIKR
21 | 90 to 110 | – | anti-PD-1 antibody 2 heavy chain G55C (antibody, human IgG4 S228P, kappa, V domains shown) VH: QVQLVESGGGVVQPGRSLRLDCKASGITFSNSGMHWVRQAPGKGLEWVAVIWYDCSKRYYADSVKGRFTISRDNSKNTLFLQMNSLRAEDTAVYYCATNDDYWGQGTLVTVSS VL: EIVLTQSPATLSLSPGERATLSCRASQSVSSYLAWYQQKPGQAPRLLIYDASNRATGIPARFSGSGSGTDFTLTISSLEPEDFAVYYCQQSSNWPRTFGQGTKVEIKR
22 | 90 to 110 | – | anti-PD-1 antibody 2 heavy chain S63C (antibody, human IgG4 S228P, kappa, V domains shown) VH: QVQLVESGGGVVQPGRSLRLDCKASGITFSNSGMHWVRQAPGKGLEWVAVIWYDGSKRYYADCVKGRFTISRDNSKNTLFLQMNSLRAEDTAVYYCATNDDYWGQGTLVTVSS VL: EIVLTQSPATLSLSPGERATLSCRASQSVSSYLAWYQQKPGQAPRLLIYDASNRATGIPARFSGSGSGTDFTLTISSLEPEDFAVYYCQQSSNWPRTFGQGTKVEIKR
23 | 90 to 110 | – | anti-PD-1 antibody 1 heavy chain T58C (antibody, human IgG4 S228P, kappa, V domains shown) VH: QVQLVQSGVEVKKPGASVKVSCKASGYTFTNYYMYWVRQAPGQGLEWMGGINPSNGGCNFNEKFKNRVTLTTDSSTTTAYMELKSLQFDDTAVYYCARRDYRFDMGFDYWGQGTTVTVSS VL: EIVLTQSPATLSLSPGERATLSCRASKGVSTSGYSYLHWYQQKPGQAPRLLIYLASYLESGVPARFSGSGSGTDFTLTISSLEPEDFAVYYCQHSRDLPLTFGGGTKVEIKR
24 | 90 to 110 | – | anti-PD-1 antibody 1 heavy chain T30C (antibody, human IgG4 S228P, kappa, V domains shown) VH: QVQLVQSGVEVKKPGASVKVSCKASGYTFCNYYMYWVRQAPGQGLEWMGGINPSNGGTNFNEKFKNRVTLTTDSSTTTAYMELKSLQFDDTAVYYCARRDYRFDMGFDYWGQGTTVTVSS VL: EIVLTQSPATLSLSPGERATLSCRASKGVSTSGYSYLHWYQQKPGQAPRLLIYLASYLESGVPARFSGSGSGTDFTLTISSLEPEDFAVYYCQHSRDLPLTFGGGTKVEIKR
